Test [1] deals with T1, ADAM33 expressed in transiently transfected HEK293 cells (HEK293-ADAM33) (UniProt Q9BZ11 204-813).
T1 construct: whole, on cells; Expression in HEK293 cells is mainly intracellular; also called HEK293-A33; A33
T1 sequence (looked up): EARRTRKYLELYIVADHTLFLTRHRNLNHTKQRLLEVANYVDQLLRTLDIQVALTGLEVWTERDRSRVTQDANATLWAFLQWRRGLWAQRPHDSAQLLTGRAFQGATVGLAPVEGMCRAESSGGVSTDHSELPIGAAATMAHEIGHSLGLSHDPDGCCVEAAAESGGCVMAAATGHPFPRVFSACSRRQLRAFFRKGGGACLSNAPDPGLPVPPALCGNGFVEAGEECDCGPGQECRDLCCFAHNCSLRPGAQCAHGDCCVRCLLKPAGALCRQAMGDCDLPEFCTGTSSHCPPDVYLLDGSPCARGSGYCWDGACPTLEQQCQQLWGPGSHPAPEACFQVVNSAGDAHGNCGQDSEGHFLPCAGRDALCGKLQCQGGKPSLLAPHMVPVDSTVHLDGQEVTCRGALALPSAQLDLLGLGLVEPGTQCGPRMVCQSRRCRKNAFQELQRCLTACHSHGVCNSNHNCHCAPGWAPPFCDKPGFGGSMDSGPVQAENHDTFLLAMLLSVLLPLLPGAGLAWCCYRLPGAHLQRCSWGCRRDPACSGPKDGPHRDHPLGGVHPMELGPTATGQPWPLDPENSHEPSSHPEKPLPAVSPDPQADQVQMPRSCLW
The test is described as follows: FACS, fixed and permeabilized HEK293-ADAM33 cells. As for the experimental part: ADP2 and ADP13 were also tested for cross-reactivity to the ADAM8 related protein ADAM33 using a variation of the above FACS protocol, which included steps for cell fixation and permeabilization. FACS was performed as an ELISA assay was precluded due to the lack of commercially available recombinant ADAM33. Cell fixation and permeabilization steps were needed as ADAM33 expression in HEK293 cells is primarily intracellular. HEK293 cells were transiently transfected over a 48-hr period with an ADAM33 construct (Clone ID HsCD00419548, Harvard Plasmid Information Database) or a control EV DNA (Plasmid #25890, Addgene) using Lipofectamine® 2000. Single cell suspensions (1×10⁶ cells/ml) were prepared in FACS buffer. Cell samples (1 ml) were centrifuged, resuspended in 50 μL cold 4% paraformaldehyde and incubated for 20 minutes at 4° C. in the dark with occasional shaking. Cells were then washed once with 1 ml FACS buffer, and then twice with 0.1% saponin FACS buffer. Samples were exposed to primary antibodies in 50 μL of 0.1% saponin FACS buffer for 30 minutes at 4° C. For ADP2, ADP13 and their respective IgG2b and IgG1 isotype matched controls, 2 μg of antibody were used. […] After three washes in 0.1% saponin FACS buffer, cells were resuspended in 500 μL FACS buffer and analyzed on a BD FACSCalibur™ machine.
In general terms: A flow cytometer gives signals particle by particle.

Test [2] addresses T2, Recombinant human ADAM9 (R&D Systems, 939-AD-020) (human, UniProt Q13443 29-697).
T2 sequence (looked up): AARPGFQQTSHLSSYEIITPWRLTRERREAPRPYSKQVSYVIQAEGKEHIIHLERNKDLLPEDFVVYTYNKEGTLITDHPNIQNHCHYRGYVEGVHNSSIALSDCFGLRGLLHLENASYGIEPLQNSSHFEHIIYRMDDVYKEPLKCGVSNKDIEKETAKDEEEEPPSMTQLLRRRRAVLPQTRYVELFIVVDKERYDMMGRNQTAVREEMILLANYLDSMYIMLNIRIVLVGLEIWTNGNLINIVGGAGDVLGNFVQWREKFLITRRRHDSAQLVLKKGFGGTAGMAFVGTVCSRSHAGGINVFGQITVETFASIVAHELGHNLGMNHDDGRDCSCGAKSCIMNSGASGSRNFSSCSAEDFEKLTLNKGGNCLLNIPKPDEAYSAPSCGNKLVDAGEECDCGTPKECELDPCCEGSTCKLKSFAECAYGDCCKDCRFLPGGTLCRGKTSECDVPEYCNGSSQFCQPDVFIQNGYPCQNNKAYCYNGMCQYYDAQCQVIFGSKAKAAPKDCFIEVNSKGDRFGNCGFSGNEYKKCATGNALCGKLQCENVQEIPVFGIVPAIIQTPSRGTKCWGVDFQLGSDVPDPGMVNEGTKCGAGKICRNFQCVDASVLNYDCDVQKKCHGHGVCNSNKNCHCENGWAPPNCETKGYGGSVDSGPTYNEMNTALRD
Kind of test: ELISA, recombinant ADAM9. The procedure:
ELISA assays were also used to test hybridoma clones, subclones and purified ADP antibodies for specificity of ADAM8 binding, i.e., binding to rHuADAM8 (Acro Biosystems, AD8-H5223) was compared to binding to closely related recombinant human ADAM proteins: […], ADAM12 (Acro Biosystems, AD2-H5228) and ADAM15 (Sino Biological, 10517-H08H). For analysis of clones and subclones, 50 μl of cell supernatants were used. A test bleed sample (1:1000) was used as a positive control. Hybridoma culture medium or a pre-bleed serum sample (1:1000) was used as a negative control. Purified mouse ADPs were assessed at 1 μg/ml vs normal mouse IgG and with a test bleed sample as a positive control. ADP binding was detected with a goat anti-mouse IgG (Fc specific)-peroxidase antibody (1:5000, Sigma-Aldrich, A0168).

B1: ADP2 (antibody, V domains shown)
VH: EVKLVESGGGLVQPGGSLSLSCAASGFSFPDYYMSWVRQPPGKALEWLGFIRDSANGYTTEYIASVKGRFTFSRDNSQSILYLQMNALRAEDSATYYCARYSRYYGMDYWGQGTSVTVSS
VL: SIVMTQTPKILLVSAGDRVTITCKASQTVNYDVAWYQQKPGQSPKPVIYFASNRYTGVPDRFTGSGFGTDFTFTISTVQAEDLAVYFCQQDYSAPWTFGGGTKLEIK
notes: also called mADP2; mouse ADP2
On to B1, for which, in test [1], the binding result is reported as “no binding (tested: 2 µg antibody per sample)”.

B2: ADP13 (antibody, IgG1, V domains shown)
VH: EVQLQQSGPEMVKPGTSVKISCKASGYTFTDYYINWVKQSHGKSLEWIGDISPNIGGATYNPKFKGKAILTVDKSARTAYMELRSLTSEDSAVYCCTRGGSSYPYFYAMDYWGQGTSVTVSS
VL: DIVMSQSPSSLAVSVGEKVTMSCKSSQSLLYSSNQKKYLAWYQQKPGQSPKLLIYWASTRESGVPDRFTGSGSGTDFTLTISSVKAEDLAVYYCQQFYSYPYTFGGGTKLEINR
notes: also called mADP13; mouse ADP13
Consider B2, for which the binding result in test [1] is “no binding (tested: 2 µg antibody per sample)”.

B3: ADP3 (antibody, IgG1, V domains shown)
VH: EVKLEESGGGLVQPGGSMKLSCAASGFTFSDAWMDWVRQSPEKGLEWVAEIRGKVNNLATYYVESVKGRFTISRDDSKSSVYLQMNSLRAEDTGIYYCLGRYDATYAMDYWGQGTSVTVSS
VL: DVVMTQTPLSLPVSLGDQASISCRSSQSLVHSDGNTYLHWYLQKPGQSPKLLIYKLSNRFSGVPDRFSGSGSGTDFTLKISRVEAEDLGVYFCSQSTHVPWTFGGGTKLEIK
Regarding B3, the binding result in test [2] was “no binding (tested: 1 µg/ml)”.

(Values after US20220227882A1 (TRUSTEES OF TUFTS COLLEGE, published 2022).)
